Literature values, collected in patent publication US12539328B2, “Oral vaccine via dental bacteria and emitted peptides to prevent COVID-19 infection” (priority 2021, dated 2026).

B1: AHB1 (protein)
chain: DEDLEELERLYRKAEEVAKEAKDASRRGDDERAKEQMERAMRLDQVFELAQELQEKQTDGNRQKATHLDKAVKEAADELYQRVR
B2: AHB2 (protein)
chain: ELEEQVMHVLDQVSELAHELLHKLTGEELERAAYFNWWATEMMLELIKSDDEREIREIEEEARRILEHLEELARK

Test system: SARS-CoV-2 infection of Vero E6 cells
Conditions: first approach, built around an ACE2 helix; read-out: IC50 of SARS-CoV-2 neutralization

Molecule	IC50
B1	35 nM
B2	15.5 nM
